US20200179316A1

Molecular target: Sec23a/Sec24d (full-length, wild type) (H. sapiens) (UniProt Q15436)
Assay: cell-based or functional assay
Settings: scale: % of protein present in starting permeabilized cells

Chain of Sec23a/Sec24d (full-length, wild type) (H. sapiens) (Q15436 whole entry, chain 1 of 2): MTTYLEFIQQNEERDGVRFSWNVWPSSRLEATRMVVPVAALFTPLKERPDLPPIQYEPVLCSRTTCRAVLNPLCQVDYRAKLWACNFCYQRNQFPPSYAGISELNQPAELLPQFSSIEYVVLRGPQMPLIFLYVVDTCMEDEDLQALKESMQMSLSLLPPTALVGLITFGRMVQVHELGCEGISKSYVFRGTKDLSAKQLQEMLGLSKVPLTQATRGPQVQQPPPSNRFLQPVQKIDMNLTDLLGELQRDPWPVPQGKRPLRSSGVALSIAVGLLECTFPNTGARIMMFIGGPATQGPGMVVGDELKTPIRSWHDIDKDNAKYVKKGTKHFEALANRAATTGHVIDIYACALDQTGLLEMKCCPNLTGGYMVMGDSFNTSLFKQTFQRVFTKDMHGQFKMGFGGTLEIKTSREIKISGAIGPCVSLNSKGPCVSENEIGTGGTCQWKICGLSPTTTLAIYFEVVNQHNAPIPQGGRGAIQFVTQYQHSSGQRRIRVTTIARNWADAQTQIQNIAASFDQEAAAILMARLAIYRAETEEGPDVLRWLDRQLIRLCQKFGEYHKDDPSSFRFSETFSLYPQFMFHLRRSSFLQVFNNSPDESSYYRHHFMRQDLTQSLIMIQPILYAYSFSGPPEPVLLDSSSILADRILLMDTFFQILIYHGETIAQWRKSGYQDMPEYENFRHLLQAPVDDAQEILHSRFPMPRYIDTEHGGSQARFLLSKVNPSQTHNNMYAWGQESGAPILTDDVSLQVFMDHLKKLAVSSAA
Chain of Sec23a/Sec24d (full-length, wild type) (H. sapiens) (O94855 other isoform, or with tags, fused parts or gaps, chain 2 of 2, further chain): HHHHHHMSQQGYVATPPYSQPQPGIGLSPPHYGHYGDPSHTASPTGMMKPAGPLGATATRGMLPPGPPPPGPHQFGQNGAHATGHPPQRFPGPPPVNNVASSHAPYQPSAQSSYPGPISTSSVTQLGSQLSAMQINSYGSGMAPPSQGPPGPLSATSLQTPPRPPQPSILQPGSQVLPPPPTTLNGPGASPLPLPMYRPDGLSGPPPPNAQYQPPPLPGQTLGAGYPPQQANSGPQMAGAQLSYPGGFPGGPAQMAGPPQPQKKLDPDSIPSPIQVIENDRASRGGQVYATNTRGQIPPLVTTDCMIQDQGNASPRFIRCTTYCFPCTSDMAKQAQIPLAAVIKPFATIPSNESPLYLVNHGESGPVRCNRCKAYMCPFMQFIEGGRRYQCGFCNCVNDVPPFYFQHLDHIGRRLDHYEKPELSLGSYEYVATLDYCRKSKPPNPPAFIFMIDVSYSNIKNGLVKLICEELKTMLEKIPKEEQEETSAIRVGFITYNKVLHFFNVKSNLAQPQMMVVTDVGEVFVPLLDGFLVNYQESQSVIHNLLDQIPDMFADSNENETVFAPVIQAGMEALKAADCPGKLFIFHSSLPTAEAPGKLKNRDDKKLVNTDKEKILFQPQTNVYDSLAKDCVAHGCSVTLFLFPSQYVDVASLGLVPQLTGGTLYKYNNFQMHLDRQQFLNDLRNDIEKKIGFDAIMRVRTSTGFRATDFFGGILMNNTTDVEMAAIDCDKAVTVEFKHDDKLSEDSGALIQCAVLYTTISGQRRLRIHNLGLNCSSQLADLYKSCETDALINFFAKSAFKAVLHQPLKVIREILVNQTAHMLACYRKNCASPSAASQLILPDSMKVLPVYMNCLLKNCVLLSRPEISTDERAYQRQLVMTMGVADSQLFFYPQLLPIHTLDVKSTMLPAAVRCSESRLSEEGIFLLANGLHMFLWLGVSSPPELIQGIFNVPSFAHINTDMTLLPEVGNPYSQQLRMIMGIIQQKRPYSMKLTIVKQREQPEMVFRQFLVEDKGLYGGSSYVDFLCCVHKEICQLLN

Substance	packaging efficiency with wild-type COPII, CHO-LDLRG544V cells	packaging efficiency with wild-type COPII, wild-type CHO cells
ERGIC-53	4.5	–
p24α2	8.7	10.9
p24α3	6.4	6.4
p24β1	10.6	–
p24δ1	7.7	4.6
